Measured values as given in US20030091568A1, “Inhibitors for the formation of soluble human CD23” (priority 2000, published 2003).

T1: ADAM9 (Homo sapiens, UniProt Q13443)
T1 construct: endogenous in cells
T1 sequence (Q13443 29-819): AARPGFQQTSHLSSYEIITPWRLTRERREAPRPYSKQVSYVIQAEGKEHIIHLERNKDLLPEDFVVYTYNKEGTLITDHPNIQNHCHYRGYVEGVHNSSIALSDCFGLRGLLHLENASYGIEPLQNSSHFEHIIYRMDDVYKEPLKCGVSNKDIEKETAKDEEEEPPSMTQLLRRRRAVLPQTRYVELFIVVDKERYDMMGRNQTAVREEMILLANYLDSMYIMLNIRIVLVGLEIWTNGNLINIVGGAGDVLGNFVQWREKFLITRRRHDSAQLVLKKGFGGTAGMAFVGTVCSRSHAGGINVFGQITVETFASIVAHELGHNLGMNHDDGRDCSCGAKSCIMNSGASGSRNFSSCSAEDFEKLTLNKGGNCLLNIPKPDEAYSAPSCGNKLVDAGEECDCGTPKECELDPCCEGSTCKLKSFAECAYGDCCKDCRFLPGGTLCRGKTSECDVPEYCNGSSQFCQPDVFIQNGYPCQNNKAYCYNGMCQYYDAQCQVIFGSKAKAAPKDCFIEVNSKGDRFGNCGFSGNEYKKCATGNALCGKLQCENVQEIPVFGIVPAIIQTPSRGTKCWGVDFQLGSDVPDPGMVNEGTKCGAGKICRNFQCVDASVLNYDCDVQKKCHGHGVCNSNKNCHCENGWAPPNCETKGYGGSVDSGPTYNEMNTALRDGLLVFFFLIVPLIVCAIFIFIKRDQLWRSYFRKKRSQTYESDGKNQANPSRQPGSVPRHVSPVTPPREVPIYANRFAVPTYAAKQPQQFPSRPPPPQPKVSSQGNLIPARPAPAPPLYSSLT


Target: T1, ADAM9
Experiment: Shedding of CD23 from human B cell line P493-6 (c-myc "On", endogenous ADAM9)
Type: cell-based
Settings: TIMP concentrations known to inhibit MMPs, MT-MMPs, ADAM10 and ADAM17, FIG. 6a
Source text: TIMP-1, -2 and -3 are known to inhibit all known secreted matrix metalloproteinases (MMPs), membrane-type matrix metalloproteinases (MT-MMPs), as well as ADAM10 (inhibited by TIMP-1 and TIMP-3) and ADAM17 (TACE, inhibited by TIMP-3 only). In contrast, it has been shown that membrane bound ADAM9 is not inhibited by either TIMP-1, -2 or -3 (see Example 3, FIG. 3). Using the human B cell line P493-6 with a tetracycline regulatable c-myc gene allowed the upregulation of endogeneous ADAM9 via upregulation of c-myc. […] The decrease in cell surface bound CD23 correlated with the increase in the s-CD23 concentration in the culture medium assayed by ELISA (CD23 ELISA kit, Becton Dickinson, and CD23 ELISA kit, the Binding Site). […]
To inhibit matrix metalloproteinase activity, aliquots of the cells studied (transfected CHO AA8, […]) were washed three-times in serum free medium and further cultured either in the presence (1 μM TC) or absence of TC for 24-48 h, either in the presence of 2 μM batimastat (BB-94, British Biotechnology) or 20 nM-1 μM of either TIMP-1, -2, or TIMP-3. […] Surface CD23 in the presence of either of the inhibitors was quantitated by FACS analyses using a FITC-labelled monoclonal antibody against human CD23 and compared to cells cultured in the absence of the respective inhibitor. […]

Row | Molecule | inhibition of CD23 shedding (s-CD23 in culture medium, ELISA)
1 | TIMP-1: tissue inhibitor of metalloproteinases 1 | could not be inhibited
2 | TIMP-3: tissue inhibitor of metalloproteinases 3 (protein, UniProt P35625 24-211, looked up) Metalloproteinase inhibitor 3: CTCSPSHPQDAFCNSDIVIRAKVVGKKLVKEGPFGTLVYTIKQMKMYRGFTKMPHVQYIHTEASESLCGLKLEVNKYQYLLTGRVYDGKMYTGLCNFVERWDQLTLSQRKGLNYRYHLGCNCKIKSCYYLPCFVTSKNECLWTDMLSNFGYPGYQSKHYACIRQKGGYCSWYRGWAPPDKSIINATDP | could not be inhibited
